From US20130059806A1 (REGENTS OF THE UNIVERSITY OF MICHIGAN, published 2013)

T1: TR4 (mouse, UniProt P49117 1-596)
T1 construct: Endogenous protein, immunoprecipitated or detected with a rabbit polyclonal antibody; also called NR2C2
T1 sequence (looked up): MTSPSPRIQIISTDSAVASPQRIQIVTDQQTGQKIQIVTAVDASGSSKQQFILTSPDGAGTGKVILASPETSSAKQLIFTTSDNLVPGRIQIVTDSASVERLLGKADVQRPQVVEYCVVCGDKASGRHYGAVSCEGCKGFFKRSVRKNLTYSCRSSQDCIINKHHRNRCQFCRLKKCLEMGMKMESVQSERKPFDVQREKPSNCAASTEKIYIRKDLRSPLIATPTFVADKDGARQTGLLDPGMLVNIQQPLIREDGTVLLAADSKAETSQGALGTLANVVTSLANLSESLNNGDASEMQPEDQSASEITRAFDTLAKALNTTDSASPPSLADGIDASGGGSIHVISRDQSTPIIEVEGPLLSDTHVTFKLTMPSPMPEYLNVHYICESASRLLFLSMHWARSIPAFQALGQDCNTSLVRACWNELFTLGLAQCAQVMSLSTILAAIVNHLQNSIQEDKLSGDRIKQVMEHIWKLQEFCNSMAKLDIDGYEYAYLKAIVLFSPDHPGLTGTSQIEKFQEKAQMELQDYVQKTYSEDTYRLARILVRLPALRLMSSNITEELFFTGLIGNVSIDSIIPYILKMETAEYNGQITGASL

B1: MTA1 (other, mouse, UniProt Q8K4B0 1-715, looked up)
chain: MAANMYRVGDYVYFENSSSNPYLIRRIEELNKTANGNVEAKVVCFYRRRDISSSLIALADKHATLSVCYRAGPGADTGEEGEVEEEVENPEMVDLPEKLKHQLRHRELFLSRQLESLPATHIRGKCSVTLLNETESLKSYLEREDFFFYSLVYDPQQKTLLADKGEIRVGNRYQADITDLLKEGEEDGRDQSKLETKVWEAHNPLVDKQIDQFLVVARSVGTFARALDCSSSVRQPSLHMSAAAASRDITLFHAMDTLHKNIYDISKAISALVPQGGPVLCRDEMEEWSASEANLFEEALEKYGKDFTDIQQDFLPWKSLTSIIEYYYMWKTTDRYVQQKRLKAAEAESKLKQVYIPNYNKPNPNQISASSVKATVVNGTGTPGQSPGAGRACESCYTTQSYQWYSWGPPNMQCRLCASCWTYWKKYGGLKMPTRLDGERPGPNRNNMSPHGIPARSSGSPKFAMKTRQAFYLHTTKLTRIARRLCREILRPWHAARHPYMPINSAAIKAECTARLPEASQSPLVLKQVVRKPLEAVLRYLETHPRPPKPDPVKSSSSVLSSLTPAKSAPVINNGSPTILGKRSYEQHNGVDGNMKKRLLMPSRGLANHGQTRHMGPSRNLLLNGKSYPTKVRLIRGGSLPPVKRRRMNWIDAPDDVFYMATEETRKIRKLLSSSETKRAARRPYKPIALRQSQALPLRPPPPAPVNDEPIVIED
notes: also called MTA1/2 (with MTA2)
B2: MTA2 (other, mouse, UniProt Q9R190 1-668, looked up)
chain: MAANMYRVGDYVYFENSSSNPYLVRRIEELNKTANGNVEAKVVCLFRRRDISSSLNSLADSNAREFEEESKQPGVSEQQRHQLKHRELFLSRQFESLPATHIRGKCSVTLLNETDILNQYLDKEDCFFYSLVFDPVQKTLLADQGEIRVGCKFQAEIPDRLAEGESDNRNQQKMEMKVWDPDNPLTDRQIDQFLVVARAVGTFARALDCSSSIRQPSLHMSAAAASRDITLFHAMDTLQRNGYDLAKAMSTLVPQGGPVLCRDEMEEWSASEAMLFEEALEKYGKDFNDIRQDFLPWKSLASIVQFYYMWKTTDRYIQQKRLKAAEADSKLKQVYIPTYTKPNPNQIISVGSKPGMNGAGFQKGLTCESCHTTQSAQWYAWGPPNMQCRLCASCWIYWKKYGGLKTPTQLEGAARGTTEPHSRGHLSRPEAQSLSPYTTSANRAKLLAKNRQTFLLQTTKLTRLARRMCRDLLQPRRAARRPYAPINANAIKAECSIRLPKAAKTPLKIHPLVRLPLATIVKDLVAQAPLKPKTPRGTKTPINRNQLTQNRGLGGIMVKRSYETMAGAGVPFSANGRPLASGIRSSSQPAAKRQKLNPADAPNPVVFVATKDTRALRKALTHLEMRRAARRPNLPLKVKPTLMTVRPPVPLPASSHPASTNEPIVLED
notes: also called MTA1/2 (with MTA1)
B3: transcriptional intermediary factor (TIF)-1beta (other, mouse, UniProt Q62318 2-834, looked up)
chain: AASAAATAAASAATAASAASGSPGSGEGSAGGEKRPAASSAAAASAAASSPAGGGGEAQELLEHCGVCRERLRPERDPRLLPCLHSACSACLGPATPAAANNSGDGGSAGDGAMVDCPVCKQQCYSKDIVENYFMRDSGSKASSDSQDANQCCTSCEDNAPATSYCVECSEPLCETCVEAHQRVKYTKDHTVRSTGPAKTRDGERTVYCNVHKHEPLVLFCESCDTLTCRDCQLNAHKDHQYQFLEDAVRNQRKLLASLVKRLGDKHATLQKNTKEVRSSIRQVSDVQKRVQVDVKMAILQIMKELNKRGRVLVNDAQKVTEGQQERLERQHWTMTKIQKHQEHILRFASWALESDNNTALLLSKKLIYFQLHRALKMIVDPVEPHGEMKFQWDLNAWTKSAEAFGKIVAERPGTNSTGPGPMAPPRAPGPLSKQGSGSSQPMEVQEGYGFGSDDPYSSAEPHVSGMKRSRSGEGEVSGLLRKVPRVSLERLDLDLTSDSQPPVFKVFPGSTTEDYNLIVIERGAAAAAAGQAGTVPPGAPGAPPLPGMAIVKEEETEAAIGAPPAAPEGPETKPVLMPLTEGPGAEGPRLASPSGSTSSGLEVVAPEVTSAPVSGPGILDDSATICRVCQKPGDLVMCNQCEFCFHLDCHLPALQDVPGEEWSCSLCHVLPDLKEEDGSLSLDGADSTGVVAKLSPANQRKCERVLLALFCHEPCRPLHQLATDSTFSMEQPGGTLDLTLIRARLQEKLSPPYSSPQEFAQDVGRMFKQFNKLTEDKADVQSIIGLQRFFETRMNDAFGDTKFSAVLVEPPPLNLPSAGLSSQELSGPGDGP
notes: also called TIF1β; TIF113

Key:
[1] = molecular target: B3; assay: co-IP from untransfected MEL nuclear extract, immunoblot
Mi2β = molecular target: T2, Mi2β (mouse, UniProt Q6PDQ2 1-1915); assay: as above
T2 construct: also called Mi2beta; Mi213
T2 sequence (Q6PDQ2 whole entry): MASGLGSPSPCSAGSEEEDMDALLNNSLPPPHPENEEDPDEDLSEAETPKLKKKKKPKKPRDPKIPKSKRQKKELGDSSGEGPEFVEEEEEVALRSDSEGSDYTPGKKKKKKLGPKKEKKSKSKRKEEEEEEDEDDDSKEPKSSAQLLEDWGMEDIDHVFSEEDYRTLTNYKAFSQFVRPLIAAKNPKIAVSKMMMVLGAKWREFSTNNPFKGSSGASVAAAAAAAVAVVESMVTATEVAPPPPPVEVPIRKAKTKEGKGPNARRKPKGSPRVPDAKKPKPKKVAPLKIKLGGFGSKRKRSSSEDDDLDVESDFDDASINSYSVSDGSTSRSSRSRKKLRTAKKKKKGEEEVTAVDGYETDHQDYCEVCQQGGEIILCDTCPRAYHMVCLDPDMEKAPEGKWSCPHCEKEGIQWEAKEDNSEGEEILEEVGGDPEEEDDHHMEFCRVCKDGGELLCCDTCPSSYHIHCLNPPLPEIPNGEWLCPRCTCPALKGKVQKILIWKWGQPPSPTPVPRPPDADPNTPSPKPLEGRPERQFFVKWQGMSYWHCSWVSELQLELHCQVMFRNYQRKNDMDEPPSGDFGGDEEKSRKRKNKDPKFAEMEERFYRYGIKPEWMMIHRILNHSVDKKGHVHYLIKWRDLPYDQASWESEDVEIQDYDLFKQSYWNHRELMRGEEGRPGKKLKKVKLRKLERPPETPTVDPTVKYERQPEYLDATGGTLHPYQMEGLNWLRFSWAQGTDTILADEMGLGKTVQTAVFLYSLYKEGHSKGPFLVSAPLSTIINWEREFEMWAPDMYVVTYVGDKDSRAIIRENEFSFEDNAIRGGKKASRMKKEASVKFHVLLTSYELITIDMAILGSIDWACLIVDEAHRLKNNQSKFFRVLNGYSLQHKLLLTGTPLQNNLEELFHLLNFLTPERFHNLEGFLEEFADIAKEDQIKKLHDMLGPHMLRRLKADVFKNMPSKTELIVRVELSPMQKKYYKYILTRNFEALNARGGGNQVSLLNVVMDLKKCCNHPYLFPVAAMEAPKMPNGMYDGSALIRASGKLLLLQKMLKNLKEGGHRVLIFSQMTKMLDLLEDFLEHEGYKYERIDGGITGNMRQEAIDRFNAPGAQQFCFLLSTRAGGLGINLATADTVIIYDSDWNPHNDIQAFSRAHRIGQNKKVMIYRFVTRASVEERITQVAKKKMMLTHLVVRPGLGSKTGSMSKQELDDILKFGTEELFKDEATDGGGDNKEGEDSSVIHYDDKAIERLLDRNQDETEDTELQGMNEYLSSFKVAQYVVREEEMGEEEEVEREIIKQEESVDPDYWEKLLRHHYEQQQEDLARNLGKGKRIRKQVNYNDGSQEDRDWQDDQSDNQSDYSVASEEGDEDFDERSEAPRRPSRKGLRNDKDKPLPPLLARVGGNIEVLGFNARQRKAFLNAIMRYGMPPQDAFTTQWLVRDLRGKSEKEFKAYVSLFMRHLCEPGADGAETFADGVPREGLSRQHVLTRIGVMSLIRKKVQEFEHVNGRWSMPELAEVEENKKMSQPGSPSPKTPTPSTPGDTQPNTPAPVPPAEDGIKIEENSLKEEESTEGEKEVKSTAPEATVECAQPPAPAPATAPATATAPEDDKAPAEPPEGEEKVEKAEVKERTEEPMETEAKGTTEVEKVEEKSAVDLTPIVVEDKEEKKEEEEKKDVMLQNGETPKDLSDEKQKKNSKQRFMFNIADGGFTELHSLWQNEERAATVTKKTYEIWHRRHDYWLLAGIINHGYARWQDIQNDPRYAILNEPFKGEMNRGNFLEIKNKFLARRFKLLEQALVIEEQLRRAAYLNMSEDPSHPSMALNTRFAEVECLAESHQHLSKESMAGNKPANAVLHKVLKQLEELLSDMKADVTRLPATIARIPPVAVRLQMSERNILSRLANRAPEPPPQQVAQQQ

MTA2 = molecular target: B2; assay: as above
CoREST = CoREST (mouse, UniProt Q8CFE3 1-480); assay: as above
Sequence of CoREST (Q8CFE3 whole entry): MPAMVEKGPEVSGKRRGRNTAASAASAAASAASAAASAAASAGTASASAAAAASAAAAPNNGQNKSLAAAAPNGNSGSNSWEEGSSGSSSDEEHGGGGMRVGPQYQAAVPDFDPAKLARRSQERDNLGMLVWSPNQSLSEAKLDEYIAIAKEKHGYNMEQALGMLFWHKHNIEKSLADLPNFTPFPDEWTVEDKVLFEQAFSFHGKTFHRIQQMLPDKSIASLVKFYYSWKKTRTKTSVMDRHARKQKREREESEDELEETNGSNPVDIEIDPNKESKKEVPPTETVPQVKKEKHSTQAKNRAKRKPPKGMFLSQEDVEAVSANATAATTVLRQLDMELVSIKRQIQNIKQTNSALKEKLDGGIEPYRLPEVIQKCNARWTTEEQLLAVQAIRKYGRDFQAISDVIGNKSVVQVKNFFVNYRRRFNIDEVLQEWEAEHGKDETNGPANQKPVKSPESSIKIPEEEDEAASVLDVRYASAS

MTA1 = molecular target: B1; assay: as above
TR4 = molecular target: T1, TR4; assay: co-IP from untransfected MEL nuclear extract, immunoblot (summary)
Experimental: Nuclear extracts were prepared from untransfected, induced MEL cells and incubated with protein G beads coupled with antibodies against proteins shown at the top of the images, or with a control IgG; 150 μg of nuclear extract protein was used for each lane. Immunoprecipitates with the antibody-coupled beads, and 10% of the input (15 μg protein) were subjected to SDS-PAGE followed by immunoblotting with antibodies against proteins shown to the left of the images. For immunoprecipitation, antibodies against TR2, TR4, DNMT1, HDAC3, and TIF113 were used in the left panels.
Antibodies were coupled to Dynabeads protein G (Invitrogen) by incubating for 2 hr at 4° C. with rotation according to the manufacturer's instructions. The beads were then incubated with nuclear extracts (150 μg protein) prepared from untransfected MEL cells for 2 hr at 4° C. After washing the beads with ice-cold phosphate buffered saline (PBS) three times, immunoprecipitated proteins were eluted by boiling in 1× Laemmli sample buffer and then subjected to immunoblotting.

binding result [1]	binding result (Mi2β)	Binder	also measured
no binding	–	B1	–
no binding	–	B2	–
–	no binding	B3	–
no binding	no binding	HDAC3 (enzyme, mouse, UniProt O88895 1-428, looked up) MAKTVAYFYDPDVGNFHYGAGHPMKPHRLALTHSLVLHYGLYKKMIVFKPYQASQHDMCRFHSEDYIDFLQRVSPTNMQGFTKSLNAFNVGDDCPVFPGLFEFCSRYTGASLQGATQLNNKICDIAINWAGGLHHAKKFEASGFCYVNDIVIGILELLKYHPRVLYIDIDIHHGDGVQEAFYLTDRVMTVSFHKYGNYFFPGTGDMYEVGAESGRYYCLNVPLRDGIDDQSYKHLFQPVISQVVDFYQPTCIVLQCGADSLGCDRLGCFNLSIRGHGECVEYVKSFNIPLLVLGGGGYTVRNVARCWTYETSLLVEEAISEELPYSEYFEYFAPDFTLHPDVSTRIENQNSRQYLDQIRQTIFENLKMLNHAPSVQIHDVPADLLTYDRTDEADAEERGPEENYSRPEAPNEFYDGDHDNDKESDVEI	binding result (MTA2): no binding; binding result (CoREST): no binding; binding result (MTA1): no binding
–	–	TR2 (receptor, mouse, UniProt Q505F1 1-590, looked up, Endogenous protein, immunoprecipitated or detected with a rabbit polyclonal antibody; also called NR2C1) MATIEEIAHQIIDQQMGEIVTEQQTGQKIQIVTALDHSTQGKQFILANHEGSTPGKVFLTTPDAAGVNQLFFTSPDLSAPHLQLLTEKSPDQGPNKVFDLCVVCGDKASGRHYGAITCEGCKGFFKRSIRKNLVYSCRGSKDCVINKHHRNRCQYCRLQRCIAFGMKQDSVQCERKPIEVSREKSSNCAASTEKIYIRKDLRSPLAATPTFVTDSETARSAGLLDSGMFVNIHPSGIKTEPAMLMAPDKAESCQGDLSTLASVVTSLANLGKAKDLSHCGGDMPVVQSLRNGDTSFGAFHHDIQTNGDVSRAFDTLAKALTPGESSACQSPEEGMEGSPHLIAGEPSFVEKEGPLLSESHVAFRLTMPSPMPEYLNVHYIGESASRLLFLSMHWALSIPSFQALGQENSISLVKAYWNELFTLGLAQCWQVMNVATILATFVNCLHSSLQQDKMSPERRKSLMEHIFKLQEFCNSMVKLCIDGHEYAYLKAIVLFSPDHPGLENMELIERFQEKAYVEFQDYITRTYPDDTYRLSRLLLRLPALRLMNATITEELFFKGLIGNVRIDSVIPHILKMEPADYNSQIIGHSL	binding result (TR4): binds
